Reference: publication PMC8377056
pKd: −log10 of the molar value. Values joined by “and” are separate entries in the source; they are usually repeats but may differ in a detail not shown here. Equal values may be shown once.

Assays:
[1] = target: His-tagged recombinant mouse LDLR (mouse) (UniProt P35951); experiment: SPR; His-tagged LDLR immobilised on a NiHC1000m sensor chip; VH4127 (10-160 nM) or Fc(A680)-VH4127 (1-16 nM) injected, single-cycle kinetics; 1:1 Langmuir model; Biacore T200
[2] = target: His-tagged recombinant human LDLR (human) (UniProt P01130); experiment: SPR; His-tagged mouse or human LDLR immobilised on a NiHC1000m sensor chip; VH4127 (10-160 nM) or Fc(A680)-VH4127 (1-16 nM) injected, single-cycle kinetics; double-subtracted sensorgrams fitted globally with the 1:1 Langmuir model (Biacore T200)
Chain of His-tagged recombinant human LDLR (human) (P01130 22-788): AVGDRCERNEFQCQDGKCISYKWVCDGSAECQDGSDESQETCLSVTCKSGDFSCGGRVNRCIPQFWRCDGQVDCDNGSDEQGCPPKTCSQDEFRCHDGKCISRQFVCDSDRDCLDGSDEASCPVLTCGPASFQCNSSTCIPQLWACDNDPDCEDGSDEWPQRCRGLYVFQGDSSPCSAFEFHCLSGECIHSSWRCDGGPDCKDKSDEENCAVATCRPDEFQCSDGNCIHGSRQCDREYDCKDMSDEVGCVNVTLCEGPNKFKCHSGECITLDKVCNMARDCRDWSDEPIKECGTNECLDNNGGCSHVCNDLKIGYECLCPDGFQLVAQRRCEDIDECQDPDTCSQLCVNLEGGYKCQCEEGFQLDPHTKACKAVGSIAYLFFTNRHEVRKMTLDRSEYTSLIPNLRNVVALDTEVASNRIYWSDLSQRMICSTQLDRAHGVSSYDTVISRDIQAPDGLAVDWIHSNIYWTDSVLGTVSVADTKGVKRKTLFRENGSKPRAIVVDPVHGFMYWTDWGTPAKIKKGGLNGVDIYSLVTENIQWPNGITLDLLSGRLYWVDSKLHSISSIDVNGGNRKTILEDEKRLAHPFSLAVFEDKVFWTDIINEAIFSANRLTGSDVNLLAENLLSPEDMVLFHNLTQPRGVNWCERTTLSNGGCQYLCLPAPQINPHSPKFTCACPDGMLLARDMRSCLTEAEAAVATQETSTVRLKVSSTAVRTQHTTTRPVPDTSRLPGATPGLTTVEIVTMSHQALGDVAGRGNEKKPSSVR

[3] = target: His-tagged recombinant mouse LDLR (mouse) (UniProt P35951); experiment: SPR; His-tagged LDLR immobilised on a NiHC1000m sensor chip; VH4127 (10-160 nM) injected, single-cycle kinetic method; double-subtracted sensorgrams fitted globally with the 1:1 Langmuir model (Biacore T200)
[4] = target: His-tagged recombinant human LDLR (human) (UniProt P01130); experiment: as above

Chain of His-tagged recombinant mouse LDLR (mouse) (P35951 22-790): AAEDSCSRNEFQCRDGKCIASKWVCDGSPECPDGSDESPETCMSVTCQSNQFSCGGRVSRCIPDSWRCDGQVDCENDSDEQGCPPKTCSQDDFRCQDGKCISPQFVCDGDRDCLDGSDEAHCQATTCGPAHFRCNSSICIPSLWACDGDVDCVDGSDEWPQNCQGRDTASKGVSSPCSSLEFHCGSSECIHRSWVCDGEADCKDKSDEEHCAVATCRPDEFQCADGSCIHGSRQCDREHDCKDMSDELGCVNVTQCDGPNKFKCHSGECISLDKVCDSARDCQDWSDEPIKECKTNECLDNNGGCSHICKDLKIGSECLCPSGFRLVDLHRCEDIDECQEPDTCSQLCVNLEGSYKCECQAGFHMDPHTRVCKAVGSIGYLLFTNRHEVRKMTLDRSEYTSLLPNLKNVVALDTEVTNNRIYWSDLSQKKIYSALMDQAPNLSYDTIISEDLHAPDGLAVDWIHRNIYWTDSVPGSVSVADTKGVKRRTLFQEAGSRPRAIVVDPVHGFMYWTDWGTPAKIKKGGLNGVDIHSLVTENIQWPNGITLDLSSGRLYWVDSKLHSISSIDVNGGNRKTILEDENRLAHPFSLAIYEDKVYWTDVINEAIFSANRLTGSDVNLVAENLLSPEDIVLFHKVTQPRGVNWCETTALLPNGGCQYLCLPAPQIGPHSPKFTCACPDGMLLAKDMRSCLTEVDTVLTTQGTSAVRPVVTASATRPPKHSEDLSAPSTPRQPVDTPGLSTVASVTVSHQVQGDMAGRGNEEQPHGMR

| pKd [1] | pKd [2] | koff [3] [s⁻¹] | kon [3] [M⁻¹ s⁻¹] | koff [4] [s⁻¹] | kon [4] [M⁻¹ s⁻¹] | Substance |
| --- | --- | --- | --- | --- | --- | --- |
| 10.04 |  |  |  |  |  | Fc(A680)-VH4127 conjugate (Fc fusion) |
|  | 7.67 and 7.70 and 7.63 | 0.0821 | 1.66e+06 | 0.0894 | 4.06e+06 | VH4127 peptide |
